Our source for the binding signal (% length extension) values is article PMC10313831.

The data set concerns the target RPA-MeGFP (Saccharomyces cerevisiae) (UniProt P22336+P26754+P26755). As to the kind of experiment: single-molecule ssDNA curtains (TIRFM). The following applies: 10 pM then 100 pM RPA; EMSA: 20 mM Tris-HCl pH 7.5, 150 (or 15) mM KCl, 1 mM DTT, 100 ug/mL BSA, 5 nM DNA, 30 C 10 min; curtains: 40 mM Tris-HCl pH 7.5, 150 or 15 mM NaCl, 2 mM …. (In general: Mobility shift assays separate free from complexed probe on a gel.)

Sequence of RPA-MeGFP (Saccharomyces cerevisiae) (P22336 whole entry, chain 1 of 3): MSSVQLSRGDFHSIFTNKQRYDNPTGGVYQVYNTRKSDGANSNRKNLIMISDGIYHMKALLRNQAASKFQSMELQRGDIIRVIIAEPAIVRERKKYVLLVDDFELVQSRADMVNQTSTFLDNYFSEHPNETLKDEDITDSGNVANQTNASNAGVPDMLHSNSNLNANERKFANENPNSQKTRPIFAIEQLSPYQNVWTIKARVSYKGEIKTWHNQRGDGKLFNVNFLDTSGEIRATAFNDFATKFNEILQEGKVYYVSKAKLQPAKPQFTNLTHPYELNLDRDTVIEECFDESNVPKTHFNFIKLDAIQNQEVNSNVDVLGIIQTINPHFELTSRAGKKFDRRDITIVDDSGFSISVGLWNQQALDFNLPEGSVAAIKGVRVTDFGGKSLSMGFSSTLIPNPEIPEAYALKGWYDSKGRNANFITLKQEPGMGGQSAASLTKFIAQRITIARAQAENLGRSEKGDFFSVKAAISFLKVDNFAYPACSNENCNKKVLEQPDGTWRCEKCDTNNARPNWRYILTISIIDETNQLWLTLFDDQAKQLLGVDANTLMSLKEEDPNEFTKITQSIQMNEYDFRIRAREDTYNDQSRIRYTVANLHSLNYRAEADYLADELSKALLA
Sequence of RPA-MeGFP (Saccharomyces cerevisiae) (P26754 whole entry, chain 2 of 3): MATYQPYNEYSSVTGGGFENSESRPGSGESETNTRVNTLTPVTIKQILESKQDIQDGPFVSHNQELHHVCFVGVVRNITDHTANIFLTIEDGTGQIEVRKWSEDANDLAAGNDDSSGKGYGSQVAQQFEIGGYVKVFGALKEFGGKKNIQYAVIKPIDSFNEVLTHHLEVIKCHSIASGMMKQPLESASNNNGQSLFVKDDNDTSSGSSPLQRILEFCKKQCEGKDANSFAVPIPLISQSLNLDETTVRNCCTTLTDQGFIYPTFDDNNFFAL
Sequence of RPA-MeGFP (Saccharomyces cerevisiae) (P26755 whole entry, chain 3 of 3): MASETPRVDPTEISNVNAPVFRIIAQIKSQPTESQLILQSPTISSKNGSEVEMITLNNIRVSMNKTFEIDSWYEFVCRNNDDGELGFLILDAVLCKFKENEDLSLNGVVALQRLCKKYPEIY

For M13 ssDNA, the binding signal (% length extension) was found to be 359.
